Positions count from the first letter of the chain named.
T1: human SLC34A2 (human, UniProt O95436 1-690)
T1 construct: whole, on cells; also called human solute carrier 34 A2; NaPi2b
T1 sequence (looked up): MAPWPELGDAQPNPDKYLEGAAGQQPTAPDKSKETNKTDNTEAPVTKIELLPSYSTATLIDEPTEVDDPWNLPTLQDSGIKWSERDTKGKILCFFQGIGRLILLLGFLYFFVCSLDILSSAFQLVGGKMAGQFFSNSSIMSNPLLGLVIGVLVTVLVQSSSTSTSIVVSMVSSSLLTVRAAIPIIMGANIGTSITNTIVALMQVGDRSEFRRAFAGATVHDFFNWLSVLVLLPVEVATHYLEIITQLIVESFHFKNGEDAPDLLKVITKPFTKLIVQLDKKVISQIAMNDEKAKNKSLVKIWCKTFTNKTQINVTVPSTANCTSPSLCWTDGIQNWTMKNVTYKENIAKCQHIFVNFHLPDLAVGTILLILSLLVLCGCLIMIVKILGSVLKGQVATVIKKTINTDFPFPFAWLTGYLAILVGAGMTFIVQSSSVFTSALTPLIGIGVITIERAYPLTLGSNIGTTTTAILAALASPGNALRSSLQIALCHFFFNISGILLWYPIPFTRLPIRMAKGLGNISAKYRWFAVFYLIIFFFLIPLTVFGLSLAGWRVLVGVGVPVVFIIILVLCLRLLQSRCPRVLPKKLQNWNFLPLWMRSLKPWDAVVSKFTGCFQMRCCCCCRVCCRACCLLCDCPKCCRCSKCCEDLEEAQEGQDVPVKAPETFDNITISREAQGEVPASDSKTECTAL

B1: 30H9B8F9.p1.z11 hIgG1 (antibody, V domains shown)
VH: QVQLVQSGAEVVKPGASVKVSCKTSGYTFTTNNMHWVRQAPGQGLEWIGAIYPGSGATAYNQKFKGRVTLTADKSTSTAYMELSSLRSEATAVYYCARGMYGHGAMDYWGQGTLVTVSS
VL: DIQMTQSPSFLSASVGDRVTITCKASQDVGTAVAWYQQKPGKSPKLLIYWATTRHSGVPDRFSGSGSGTEFIFTISSVQPEDFATYFCQQYSSNPLTFGAGTKLEIK
notes: humanized hIgG1
B2: 30H9B8F9.p1.z12 hIgG1 (antibody, V domains shown)
VH: B1 VH
VL: B1 VL with Q3V, S63T, E70D
notes: humanized hIgG1
B3: 30H9B8F9.p1.z14 hIgG1 (antibody, V domains shown)
VH: B1 VH with V20M, R38K, V68A, L114S
VL: B1 VL with M4L, I72T, V78L, A100Q
notes: humanized hIgG1
B4: xi20H2F1 hIgG1 (antibody, V domains shown)
VH: EVKLVESGGNLVKPGGSLKLSCAASGFTFSSYAMSWVRQTPEKRLEWVASISNGGTTYYPDSVKGRFTISRDVARNILYLQMTSLRSEDTAMYYCARTHYRDFVYWGQGTLVTVSA
VL: EIVLTQAAFSNPVTLGTSASISCRSSKSLLHSNGITYLYWYLQKPGQSPQLLIYQMSNLASGVPDRFSCSGSGTDFTLRISRVEAEDVGVYYCAQNLEFPWTFGGGTKLEIK
notes: chimeric, hIgG1
B5: xi95H11A1D8VH-1 hIgG1 (antibody, V domains shown)
VH: QVQLQQPGAELVKPGASVKMSCKTSGYTFTTNNMHWVKQTPGQGLEWIGAIYPGNGATAYNQKFKGKATLTADKSSSTAYMQLSSLTSEASAVYYCARGMYGHGAMDYWGQGTSVIVSS
VL: DIVLTQSPATLSVTPGDSVSLSCRARQNIGNNLYWYQQKSNESPRLLIKYASQSISGIPSRFSGSGSGTDFTLTINSVETEDFGVYFCQQSFSWPLTFGAGTKLELK
notes: chimeric, hIgG1; the suffix VH-1 is not explained
B6: xi11F6H8 hIgG1 (antibody, V domains shown)
VH: EVQLQQSGPELVKPGASVKISCKTSGFTFTEYTMHWVKQSHGKSLEWIGGINPNNGISSYNQNFKGKATLTVDKSSSTAYMELRSLTSEDSTVYYCARCRYYDTSYYDMDYWGQGTSVTVSS
VL: DIQMTQTTSSLSASLGDRVTISCRASQDIRNFLNWYQQKPDGTVKLLIYYTSRLHSGVPSRFSGSGSGTDYSLTISNLEEEDIATYFCQQSNTLPWTFGGGTKLEIK
notes: chimeric, hIgG1
B7: xi7G10E11 hIgG1 (antibody, V domains shown)
VH: DVKLVESGGGLIKLGGSLKLSCAASGFTFSGYYMSWFRQTPEKRLELVAVINSNGGSTYYAVTVKGRFTISRDNAKNTLYLQMSSLKSEDTALYYCARHEGSQAWFAHWGQGTLVTVSA
VL: DIVMTQSHKFMSTSVGDRVSITCKASQDVTTAVAWYQQKPGQSPKLLIYWASTRHTGVPDRFTGSGSGTDYTLTISSVQAEDLALYYCQQHHSTPLTFGAGTKLELK
notes: chimeric, hIgG1
B8: xi25B11B9 hIgG1 (antibody, V domains shown)
VH: DVKLVESGGGLVRLGGSLKLSCAASGFTFSSHYMSWVRQTPKKRLELVATINSSGGNTYYPDTVKGRFTISRDNARNTLFLQMTSLKSEDTALYYCARQPINTVAYFDYWGQGTTLTVSS
VL: B7 VL with K9E, D17A, V29L, T56I, T69A, H91Y
notes: chimeric, hIgG1
B9: xi62C10B3D2 hIgG1 (antibody, V domains shown)
VH: QVHQQQSGPELVKPGASVRISCKASGYTFTSYYIHWVKQRPGQGLEWIGCIYPGNLFTKYNEKFKDKATLTADTSSTTAYMHLSSLTSEDSAVYFCARFLNWNAWYFDVWGAGTTVSVSS
VL: DVLMTQTPLSLPVSLGDQASISCRSSQSIEHSNGNTNLEWYLQKPGQSPRLLIYKVSNRFSGVPDRFSGSGSGTDFTLKITGVEAEDLGVYYCFQGSHFPWTFGGGTKLEIK
notes: chimeric, hIgG1
B10: 30H9B8F9.p1.z15 hIgG1 (antibody, V domains shown)
VH: B1 VH with V20M, R38K, V68A, L114S
VL: B1 VL
notes: humanized hIgG1
B11: 30H9B8F9.p1.z16 hIgG1 (antibody, V domains shown)
VH: B1 VH with V20M, R38K, V68A, L114S
VL: B1 VL with Q3V, S63T, E70D
notes: humanized hIgG1
B12: 63A11D5B4.p1.z13 hIgG1 (antibody, V domains shown)
VH: QVQLQQSGAEVVKPGASVKMSCKTSGYTFITYNMHWVKQAPGQGREWIGAIYPGSGDTSYNQKFKGRATLTADKSTSTAYMELSSLRSEDTAVYYCSISTIITTGAVDYWGQGTSVTVSS
VL: DIQMTQSPSSLSASVGDRVTITCKASQDVGTAVAWYQQKPGKVPKLLIYWTSTRHTGVPSRFSGSGSGTDFTLTISSLQPEDVATYYCQQYSRIPLTFGGGTKVEIK
notes: humanized hIgG1
B13: xi67C9G11 hIgG1 (antibody, V domains shown)
VH: DVKLVESGGGLVKLGGSLKLSCAASGFTFSSYFMSWIRQTPEKRVDLVAVINSNGGSTYSPDTVKGRFTISRDNAKNTLYLQMTSLKSEDTALYYCARHFYSYDGAWFPYWGQGTLVTVSA
VL: B7 VL with S14L, T30S, A32S, Y71F, L96I, A100V
notes: chimeric, hIgG1

Tests used:
human SLC34A2 [1] = target: T1, human SLC34A2; assay: FACS, OVCAR3 cells
Protocol: The binding of these humanized antibodies to OVCAR3 cells was evaluated as described above, and the results are shown in FIG. 12A-D and Tables 16A-D.

human SLC34A2 [2] = target: T1, human SLC34A2; assay: FACS, OVCAR3 cells; remark: listed apart in the source
Protocol: In this example, cell based binding of chimeric antibodies (hIgG1) prepared from the murine antibodies on human SLC34A2 expressing cells were assessed using flow cytometry.
(§1) Briefly, OVCAR3 cells or HEK293 cells expressing human SLC34A2 were incubated with chimeric antibodies (from 200 nM, 4 folds dilution, 8 points). After incubation at 4° C. for 60 minutes, the cells were washed with FACS buffer twice, then stained with fluorescent conjugated secondary antibody at 4° C. for 30 minutes. After that the cells were washed twice and analyzed by flow cytometry.

human SLC34A2 [3] = target: T1, human SLC34A2; assay: FACS, HEK293/human SLC34A2 cells
Protocol: as §1

human SLC34A2 [4] = target: T1, human SLC34A2; assay: FACS, OVCAR3 cells; remark: listed apart in the source

Binder | EC50 (human SLC34A2 [1]) | Top (MFI) (human SLC34A2 [1]) | EC50 (human SLC34A2 [2]) | Top (MFI) (human SLC34A2 [2]) | EC50 (human SLC34A2 [3]) | Top (MFI) (human SLC34A2 [3]) | EC50 (human SLC34A2 [4]) | Top (MFI) (human SLC34A2 [4])
B1 | 1.43 nM | 27000 MFI |  |  |  |  |  | 
B2 | 1.4 nM | 27600 MFI |  |  |  |  |  | 
B3 | 1.31 nM | 27300 MFI |  |  |  |  |  | 
B4 |  |  | 2.73 nM | 26500 MFI | 1.31 nM | 42000 MFI |  | 
B5 |  |  |  |  | 63.4 nM | 12700 MFI |  | 
B6 |  |  | 4.9 nM | 41300 MFI | 1.92 nM | 111000 MFI |  | 
B7 |  |  | 1.68 nM | 39600 MFI | 1.72 nM | 109000 MFI |  | 
B8 |  |  | 9.06 nM | 42500 MFI | 2.51 nM | 106000 MFI |  | 
B9 |  |  | 408 nM | 29500 MFI | 378 nM | 128000 MFI |  | 
B10 | 1.05 nM | 26500 MFI |  |  |  |  |  | 
B11 | 1.41 nM | 26500 MFI |  |  |  |  |  | 
B12 |  |  |  |  |  |  | 16.4 nM | 32600 MFI
B13 |  |  | 4.67 nM | 41000 MFI | 2.82 nM | 107000 MFI |  | 
